US20230365714A1 (published 2023)

Each binder was assayed against T1, his-tagged ROR2 extracellular domain (ROR2-ECD, G&P Biosciences, cat. no. FCL0192) (human, UniProt Q01974 34-403) (assay: BLI (Octet), antibody on anti-human IgG Fc sensor, ROR2-ECD 1.56-100 nM as analyte).
T1 construct: Bought protein; also called human ROR2-ECD; recombinant human ROR2-ECD; not shown: his tag
T1 sequence (Q01974 34-403): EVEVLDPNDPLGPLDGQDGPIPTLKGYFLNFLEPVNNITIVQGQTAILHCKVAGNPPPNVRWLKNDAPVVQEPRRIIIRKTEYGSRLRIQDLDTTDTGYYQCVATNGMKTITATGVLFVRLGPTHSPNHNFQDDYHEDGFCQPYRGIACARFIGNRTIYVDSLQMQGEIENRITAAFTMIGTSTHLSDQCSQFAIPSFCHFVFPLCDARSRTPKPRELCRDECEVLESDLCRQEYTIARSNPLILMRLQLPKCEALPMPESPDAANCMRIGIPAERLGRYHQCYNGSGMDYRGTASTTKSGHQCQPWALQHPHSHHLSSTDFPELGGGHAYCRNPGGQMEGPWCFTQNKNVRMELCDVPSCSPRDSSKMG

| Kd | koff | kon | Binder |
| --- | --- | --- | --- |
| 1.6 nM | 0.00088 s⁻¹ | 550000 M⁻¹ s⁻¹ | IgG1-ROR2-A-HC3LC1-FEAR (antibody, V domains shown, Humanized variant) VH: EVQLLESGGGLVQPGGSLRLSCTVSGFSLSSYSMSWVRQAPGKGLEWIGVIYVNSKTWYANWAKGRFTISKTSTTVYLQMNSLRAEDTATYYCARGDAGYTTNSWLWGQGTLVTVSS VL: AFELTQSPSSLSASVGDRVTITCQASESIDNYCSWYQQKPGKAPKLLIYQAFKLASGVPSRFRGSGSGTDFTLTISSLQSEDFATYYCQSYSGISTTAFGGGTEVVIK |
| 1.6 nM | 0.00088 s⁻¹ | 540000 M⁻¹ s⁻¹ | IgG1-ROR2-A-HC5LC1-FEAR (antibody, V domains shown, Humanized variant) VH: EVQLLESGGGLVQPGGSLRLSCAASGFSLSSYSMSWVRQAPGKGLEWIGVIYVNSKTWYANWAKGRFTISKDNSKNTVYLQMNSLRAEDTATYYCARGDAGYTTNSWLWGQGTLVTVSS VL: AFELTQSPSSLSASVGDRVTITCQASESIDNYCSWYQQKPGKAPKLLIYQAFKLASGVPSRFRGSGSGTDFTLTISSLQSEDFATYYCQSYSGISTTAFGGGTEVVIK |
| 1.5 nM | 0.00092 s⁻¹ | 620000 M⁻¹ s⁻¹ | IgG1-ROR2-A-HC4LC4-FEAR (antibody, Humanized variant) heavy: EVQLLESGGGLVQPGGSLRLSCTVSGFSLSSYSMSWVRQAPGKGLEWIGVIYVNSKTWYANWAKGRFTISKDNSKNTVYLQMNSLRAEDTATYYCARGDAGYTTNSWLWGQGTLVTVSSASTKGPSVFPLAPSSKSTSGGTAALGCLVKDYFPEPVTVSWNSGALTSGVHTFPAVLQSSGLYSLSSVVTVPSSSLGTQTYICNVNHKPSNTKVDKRVEPKSCDKTHTCPPCPAPEFEGGPSVFLFPPKPKDTLMISRTPEVTCVVVAVSHEDPEVKFNWYVDGVEVHNAKTKPREEQYNSTYRVVSVLTVLHQDWLNGKEYKCKVSNKALPAPIEKTISKAKGQPREPQVYTLPPSREEMTKNQVSLTCLVKGFYPSDIAVEWESNGQPENNYKTTPPVLDSDGSFFLYSRLTVDKSRWQQGNVFSCSVMHEALHNHYTQKSLSLSPGK VL: DIQLTQSPSSLSASVGDRVTITCQASESIDNYLSWYQQKPGKAPKLLIYQAFKLASGVPSRFRGSGSGTDFTLTISSLQPEDFATYYCQSYSGISTTAFGGGTKVEIK |
| 3.1 nM | 0.0017 s⁻¹ | 560000 M⁻¹ s⁻¹ | IgG1-ROR2-A-HC6LC1-FEAR (antibody, V domains shown, Humanized variant) VH: EVQLLESGGGLVQPGGSLRLSCTVSGFSLSSYSMSWVRQAPGKGLEWIGVIYVNSKTWYADSVKGRFTISKDNSKNTVYLQMNSLRAEDTATYYCARGDAGYTTNSWLWGQGTLVTVSS VL: AFELTQSPSSLSASVGDRVTITCQASESIDNYCSWYQQKPGKAPKLLIYQAFKLASGVPSRFRGSGSGTDFTLTISSLQSEDFATYYCQSYSGISTTAFGGGTEVVIK |
| 1.9 nM | 0.0011 s⁻¹ | 550000 M⁻¹ s⁻¹ | IgG1-ROR2-A-HC5LC4-FEAR (antibody, Humanized variant) heavy: EVQLLESGGGLVQPGGSLRLSCAASGFSLSSYSMSWVRQAPGKGLEWIGVIYVNSKTWYANWAKGRFTISKDNSKNTVYLQMNSLRAEDTATYYCARGDAGYTTNSWLWGQGTLVTVSSASTKGPSVFPLAPSSKSTSGGTAALGCLVKDYFPEPVTVSWNSGALTSGVHTFPAVLQSSGLYSLSSVVTVPSSSLGTQTYICNVNHKPSNTKVDKRVEPKSCDKTHTCPPCPAPEFEGGPSVFLFPPKPKDTLMISRTPEVTCVVVAVSHEDPEVKFNWYVDGVEVHNAKTKPREEQYNSTYRVVSVLTVLHQDWLNGKEYKCKVSNKALPAPIEKTISKAKGQPREPQVYTLPPSREEMTKNQVSLTCLVKGFYPSDIAVEWESNGQPENNYKTTPPVLDSDGSFFLYSRLTVDKSRWQQGNVFSCSVMHEALHNHYTQKSLSLSPGK VL: DIQLTQSPSSLSASVGDRVTITCQASESIDNYLSWYQQKPGKAPKLLIYQAFKLASGVPSRFRGSGSGTDFTLTISSLQPEDFATYYCQSYSGISTTAFGGGTKVEIK |
| 1.6 nM | 0.00095 s⁻¹ | 590000 M⁻¹ s⁻¹ | IgG1-ROR2-A-HC4LC2-FEAR (antibody, V domains shown, Humanized variant) VH: EVQLLESGGGLVQPGGSLRLSCTVSGFSLSSYSMSWVRQAPGKGLEWIGVIYVNSKTWYANWAKGRFTISKDNSKNTVYLQMNSLRAEDTATYYCARGDAGYTTNSWLWGQGTLVTVSS VL: AFELTQSPSSLSASVGDRVTITCQASESIDNYLSWYQQKPGKAPKLLIYQAFKLASGVPSRFRGSGSGTDFTLTISSLQSEDFATYYCQSYSGISTTAFGGGTEVVIK |
| 1.7 nM | 0.00084 s⁻¹ | 510000 M⁻¹ s⁻¹ | IgG1-ROR2-A-HC5LC3-FEAR (antibody, Humanized variant) heavy: EVQLLESGGGLVQPGGSLRLSCAASGFSLSSYSMSWVRQAPGKGLEWIGVIYVNSKTWYANWAKGRFTISKDNSKNTVYLQMNSLRAEDTATYYCARGDAGYTTNSWLWGQGTLVTVSSASTKGPSVFPLAPSSKSTSGGTAALGCLVKDYFPEPVTVSWNSGALTSGVHTFPAVLQSSGLYSLSSVVTVPSSSLGTQTYICNVNHKPSNTKVDKRVEPKSCDKTHTCPPCPAPEFEGGPSVFLFPPKPKDTLMISRTPEVTCVVVAVSHEDPEVKFNWYVDGVEVHNAKTKPREEQYNSTYRVVSVLTVLHQDWLNGKEYKCKVSNKALPAPIEKTISKAKGQPREPQVYTLPPSREEMTKNQVSLTCLVKGFYPSDIAVEWESNGQPENNYKTTPPVLDSDGSFFLYSRLTVDKSRWQQGNVFSCSVMHEALHNHYTQKSLSLSPGK VL: AFELTQSPSSLSASVGDRVTITCQASESIDNYLSWYQQKPGKAPKLLIYQAFKLASGVPSRFRGSGSGTDFTLTISSLQPEDFATYYCQSYSGISTTAFGGGTKVEIK |

Further lines, the binder ahead of its results:

| Binder | Kd | koff | kon |
| --- | --- | --- | --- |
| IgG1-ROR2-A-HC3LC2-FEAR (antibody, V domains shown, Humanized variant) VH: EVQLLESGGGLVQPGGSLRLSCTVSGFSLSSYSMSWVRQAPGKGLEWIGVIYVNSKTWYANWAKGRFTISKTSTTVYLQMNSLRAEDTATYYCARGDAGYTTNSWLWGQGTLVTVSS VL: AFELTQSPSSLSASVGDRVTITCQASESIDNYLSWYQQKPGKAPKLLIYQAFKLASGVPSRFRGSGSGTDFTLTISSLQSEDFATYYCQSYSGISTTAFGGGTEVVIK | 1.8 nM | 0.001 s⁻¹ | 560000 M⁻¹ s⁻¹ |
| IgG1-ROR2-A-HC7LC2-FEAR (antibody, V domains shown, Humanized variant) VH: EVQLLESGGGLVQPGGSLRLSCAASGFSLSSYSMSWVRQAPGKGLEWIGVIYVNSKTWYADSVKGRFTISKDNSKNTVYLQMNSLRAEDTATYYCARGDAGYTTNSWLWGQGTLVTVSS VL: AFELTQSPSSLSASVGDRVTITCQASESIDNYLSWYQQKPGKAPKLLIYQAFKLASGVPSRFRGSGSGTDFTLTISSLQSEDFATYYCQSYSGISTTAFGGGTEVVIK | 4.7 nM | 0.0025 s⁻¹ | 540000 M⁻¹ s⁻¹ |
| IgG1-ROR2-A-HC3LC3-FEAR (antibody, Humanized variant) heavy: EVQLLESGGGLVQPGGSLRLSCTVSGFSLSSYSMSWVRQAPGKGLEWIGVIYVNSKTWYANWAKGRFTISKTSTTVYLQMNSLRAEDTATYYCARGDAGYTTNSWLWGQGTLVTVSSASTKGPSVFPLAPSSKSTSGGTAALGCLVKDYFPEPVTVSWNSGALTSGVHTFPAVLQSSGLYSLSSVVTVPSSSLGTQTYICNVNHKPSNTKVDKRVEPKSCDKTHTCPPCPAPEFEGGPSVFLFPPKPKDTLMISRTPEVTCVVVAVSHEDPEVKFNWYVDGVEVHNAKTKPREEQYNSTYRVVSVLTVLHQDWLNGKEYKCKVSNKALPAPIEKTISKAKGQPREPQVYTLPPSREEMTKNQVSLTCLVKGFYPSDIAVEWESNGQPENNYKTTPPVLDSDGSFFLYSRLTVDKSRWQQGNVFSCSVMHEALHNHYTQKSLSLSPGK VL: AFELTQSPSSLSASVGDRVTITCQASESIDNYLSWYQQKPGKAPKLLIYQAFKLASGVPSRFRGSGSGTDFTLTISSLQPEDFATYYCQSYSGISTTAFGGGTKVEIK | 1.8 nM | 0.001 s⁻¹ | 550000 M⁻¹ s⁻¹ |
| IgG1-ROR2-A-HC6LC2-FEAR (antibody, V domains shown, Humanized variant) VH: EVQLLESGGGLVQPGGSLRLSCTVSGFSLSSYSMSWVRQAPGKGLEWIGVIYVNSKTWYADSVKGRFTISKDNSKNTVYLQMNSLRAEDTATYYCARGDAGYTTNSWLWGQGTLVTVSS VL: AFELTQSPSSLSASVGDRVTITCQASESIDNYLSWYQQKPGKAPKLLIYQAFKLASGVPSRFRGSGSGTDFTLTISSLQSEDFATYYCQSYSGISTTAFGGGTEVVIK | 3.9 nM | 0.0022 s⁻¹ | 560000 M⁻¹ s⁻¹ |
| IgG1-ROR2-A-HC5LC2-FEAR (antibody, V domains shown, Humanized variant) VH: EVQLLESGGGLVQPGGSLRLSCAASGFSLSSYSMSWVRQAPGKGLEWIGVIYVNSKTWYANWAKGRFTISKDNSKNTVYLQMNSLRAEDTATYYCARGDAGYTTNSWLWGQGTLVTVSS VL: AFELTQSPSSLSASVGDRVTITCQASESIDNYLSWYQQKPGKAPKLLIYQAFKLASGVPSRFRGSGSGTDFTLTISSLQSEDFATYYCQSYSGISTTAFGGGTEVVIK | 1.8 nM | 0.00097 s⁻¹ | 550000 M⁻¹ s⁻¹ |
| IgG1-ROR2-A-HC3LC4-FEAR (antibody, Humanized variant) heavy: EVQLLESGGGLVQPGGSLRLSCTVSGFSLSSYSMSWVRQAPGKGLEWIGVIYVNSKTWYANWAKGRFTISKTSTTVYLQMNSLRAEDTATYYCARGDAGYTTNSWLWGQGTLVTVSSASTKGPSVFPLAPSSKSTSGGTAALGCLVKDYFPEPVTVSWNSGALTSGVHTFPAVLQSSGLYSLSSVVTVPSSSLGTQTYICNVNHKPSNTKVDKRVEPKSCDKTHTCPPCPAPEFEGGPSVFLFPPKPKDTLMISRTPEVTCVVVAVSHEDPEVKFNWYVDGVEVHNAKTKPREEQYNSTYRVVSVLTVLHQDWLNGKEYKCKVSNKALPAPIEKTISKAKGQPREPQVYTLPPSREEMTKNQVSLTCLVKGFYPSDIAVEWESNGQPENNYKTTPPVLDSDGSFFLYSRLTVDKSRWQQGNVFSCSVMHEALHNHYTQKSLSLSPGK VL: DIQLTQSPSSLSASVGDRVTITCQASESIDNYLSWYQQKPGKAPKLLIYQAFKLASGVPSRFRGSGSGTDFTLTISSLQPEDFATYYCQSYSGISTTAFGGGTKVEIK | 1.5 nM | 0.00087 s⁻¹ | 580000 M⁻¹ s⁻¹ |
| IgG1-ROR2-A-HC4LC1-FEAR (antibody, V domains shown, Humanized variant) VH: EVQLLESGGGLVQPGGSLRLSCTVSGFSLSSYSMSWVRQAPGKGLEWIGVIYVNSKTWYANWAKGRFTISKDNSKNTVYLQMNSLRAEDTATYYCARGDAGYTTNSWLWGQGTLVTVSS VL: AFELTQSPSSLSASVGDRVTITCQASESIDNYCSWYQQKPGKAPKLLIYQAFKLASGVPSRFRGSGSGTDFTLTISSLQSEDFATYYCQSYSGISTTAFGGGTEVVIK | 2.1 nM | 0.0011 s⁻¹ | 540000 M⁻¹ s⁻¹ |
